Article doi:10.1101/2021.09.10.459853v1 (bioRxiv, 2021)

What was measured:
[1] = system: SST2 CNiFERs implanted in mouse cortex; experiment: SST volume transmission in vivo, core-satellite SST2 CNiFER implants; conditions: normal mouse cortex; distance less than 130 μm
[2] = cited from earlier work
[3] = biological target: SST2 receptor (hSSTR2) in SST2 CNiFER clone #5F3 (Homo sapiens, UniProt P30874); experiment: SST2 CNiFER FRET response, plate reader; format: cell-based; conditions: 1000 nM; n = 3-6
[4] = Integrative optical imaging; format: physicochemical; conditions: IOI, 0.3% dilute agarose gel in PBS; 31°C; n=30 records; Mean ± S.D.; SD
[5] = system: hyaluronan in mouse brain cortex; experiment: HABP immunostaining after intraventricular hyaluronidase; format: in vivo; conditions: two days after hyase injection, n = 5 slices
[6] = cited from earlier work; remark: listed apart in the source

Chain of SST2 receptor (hSSTR2) in SST2 CNiFER clone #5F3 (P30874 whole entry): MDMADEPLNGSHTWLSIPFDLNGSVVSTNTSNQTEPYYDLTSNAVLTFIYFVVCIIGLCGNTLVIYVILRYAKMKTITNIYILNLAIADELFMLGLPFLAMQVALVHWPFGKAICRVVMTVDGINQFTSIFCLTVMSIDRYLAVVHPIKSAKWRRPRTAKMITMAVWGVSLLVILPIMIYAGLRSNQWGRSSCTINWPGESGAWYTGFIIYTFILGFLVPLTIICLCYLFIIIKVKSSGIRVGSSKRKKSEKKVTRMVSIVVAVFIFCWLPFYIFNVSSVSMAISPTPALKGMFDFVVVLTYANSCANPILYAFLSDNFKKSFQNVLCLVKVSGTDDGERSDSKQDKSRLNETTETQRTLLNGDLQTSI

Q: With `C[C@H](N)C(=O)NCC(=O)N[C@H]1CSSC[C@@H](C(=O)O)NC(=O)[C@H](CO)NC(=O)[C@H]([C@@H](C)O)NC(=O)[C@H](Cc2ccccc2)NC(=O)[C@H]([C@@H](C)O)NC(=O)[C@H](CCCCN)NC(=O)[C@H](Cc2c[nH]c3ccccc23)NC(=O)[C@H](Cc2ccccc2)NC(=O)[C@H](Cc2ccccc2)NC(=O)[C@H](CC(N)=O)NC(=O)[C@H](CCCCN)NC1=O` [SST, Somatostatin-14] as the compound, how does the “time to activate SST2 CNiFERs” value [1] read?
A: The value was “below 10 s”.

Q: And the half-life in plasma [2]?
A: The half-life in plasma was 1 to 3 min.

Q: Which “FRET response of SST2 CNiFERs” value [3] does the source give for `CC(=O)OCC[N+](C)(C)C` [acetylcholine] here?
A: Its value is “small response”.

Q: Which “free diffusion coefficient (D)” value [4] does the source give for “Fluorescein-5(6)-carbonyl-somatostatin-14 [5(6)-FAM-SST]” here?
A: Its value is “(3.00 ± 0.18) × 10^-6 cm^2•s^-1”.

Q: For hyaluronidase, which “cell nuclei number or size in cortex compared with control group” value [5] is on record?
A: Its value is “no differences”.

Q: Which “half-life in brain cerebrospinal fluid (CSF)” value [6] does the source give for oxytocin here?
A: The value was ~ 20 mins.

Q: For vasopressin, which “half-life in brain cerebrospinal fluid (CSF)” value [6] is on record?
A: Its value is ~ 20 mins.
